Laboratory results published in patent publication US20020058247A1 (TRIPEP, published 2002).

How the values were obtained:
[1] = target: T1, truncated recombinant form of HBeAg containing nine residues of pre-core and the 150 first residues of HBcAg (hepatitis B virus, UniProt P03146 1-150); test: EIA, support-bound peptide, HBeAg 5 ug/ml
T1 construct: domain: nine residues of pre-core;range 1-150; also called hepatitis B virus e antigen

[2] = target: T2, Full length recombinant HBcAg (rHBcAg) encompassing residues 1-183 (hepatitis B virus, UniProt P03146 1-183); test: EIA, support-bound peptide, HBcAg 20 ug/ml
T2 construct: range 1-183; also called hepatitis B virus core antigen

[3] = target: T1, truncated recombinant form of HBeAg …; test: EIA, support-bound peptide, HBeAg 20 ug/ml
[4] = target: T3, non-structural 3 protein (NS3) of the hepatitis C virus (HCV) (hepatitis C virus); test: EIA, support-bound peptide, HCV NS3 control
T3 construct: Control antigen; also called HCV NS3

[5] = target: T2, Full length recombinant HBcAg (rHBcAg) …; test: EIA, support-bound peptide, HBcAg 2.5 ug/ml
[6] = target: T1, truncated recombinant form of HBeAg …; test: EIA, support-bound peptide, HBeAg 2.5 ug/ml
[7] = target: T1, truncated recombinant form of HBeAg …; test: EIA, support-bound peptide, HBeAg 0.67 ug/ml
[8] = target: T1, truncated recombinant form of HBeAg …; test: EIA, support-bound peptide, HBeAg 1.25 ug/ml
[9] = target: T2, Full length recombinant HBcAg (rHBcAg) …; test: EIA, peptide coated 50 ug/ml, HBcAg 10 ug/ml
[10] = target: T2, Full length recombinant HBcAg (rHBcAg) …; test: EIA, support-bound peptide, HBcAg 0.2 ug/well
[11] = target: T2, Full length recombinant HBcAg (rHBcAg) …; test: EIA, peptide coated 100 ug/ml, HBcAg 10 ug/ml
[12] = target: T2, Full length recombinant HBcAg (rHBcAg) …; test: EIA, peptide coated 12.5 ug/ml, HBcAg 10 ug/ml
[13] = target: T2, Full length recombinant HBcAg (rHBcAg) …; test: EIA, peptide coated 6.25 ug/ml, HBcAg 10 ug/ml
[14] = target: T2, Full length recombinant HBcAg (rHBcAg) …; test: EIA, peptide coated 3.125 ug/ml, HBcAg 10 ug/ml
[15] = target: T2, Full length recombinant HBcAg (rHBcAg) …; test: competition EIA, HBcAg coated 1 ug/ml, peptide 25 ug/ml before mAb 4-2 (competitor); OD of bound mAb
[16] = target: T2, Full length recombinant HBcAg (rHBcAg) …; test: competition EIA, HBcAg coated 1 ug/ml, peptide 100 ug/ml before mAb 4-2 (competitor); OD of bound mAb
[17] = target: T2, Full length recombinant HBcAg (rHBcAg) …; test: competition EIA, HBcAg coated 1 ug/ml, peptide 12.5 ug/ml before mAb 4-2 (competitor); OD of bound mAb
[18] = target: T2, Full length recombinant HBcAg (rHBcAg) …; test: competition EIA, HBcAg coated 1 ug/ml, peptide 6.25 ug/ml before mAb 4-2 (competitor); OD of bound mAb
[19] = target: T2, Full length recombinant HBcAg (rHBcAg) …; test: competition EIA, HBcAg coated 5 ug/ml, peptide 25 ug/ml together with mAb 4-2 (competitor); OD of bound mAb
[20] = target: T2, Full length recombinant HBcAg (rHBcAg) …; test: competition EIA, HBcAg coated 5 ug/ml, peptide 50 ug/ml together with mAb 4-2 (competitor); OD of bound mAb
[21] = target: T2, Full length recombinant HBcAg (rHBcAg) …; test: competition EIA, HBcAg coated 5 ug/ml, peptide 100 ug/ml together with mAb 4-2 (competitor); OD of bound mAb
[22] = target: T2, Full length recombinant HBcAg (rHBcAg) …; test: competition EIA, HBcAg coated 5 ug/ml, peptide 200 ug/ml together with mAb 4-2 (competitor); OD of bound mAb
[23] = target: T2, Full length recombinant HBcAg (rHBcAg) …; test: competition EIA, HBcAg coated 5 ug/ml, peptide 12.5 ug/ml together with mAb 4-2 (competitor); OD of bound mAb

T2 sequence (P03146 whole entry, the tested form may be a part): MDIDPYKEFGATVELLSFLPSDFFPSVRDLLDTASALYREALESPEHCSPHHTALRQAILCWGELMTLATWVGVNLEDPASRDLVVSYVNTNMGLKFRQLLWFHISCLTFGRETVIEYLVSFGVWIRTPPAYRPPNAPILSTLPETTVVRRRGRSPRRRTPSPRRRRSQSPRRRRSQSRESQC
T1 sequence (P03146 1-150): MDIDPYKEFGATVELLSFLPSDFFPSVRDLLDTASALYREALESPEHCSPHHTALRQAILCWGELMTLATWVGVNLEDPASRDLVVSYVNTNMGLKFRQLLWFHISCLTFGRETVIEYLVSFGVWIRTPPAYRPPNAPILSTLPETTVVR

| Binder | OD [1] [OD] | OD [2] [OD] | OD [3] [OD] | OD at 405 nm [4] [OD] | OD [5] [OD] | OD [6] [OD] | OD [7] [OD] | OD [8] [OD] | OD [9] [OD] | OD at 405 nm [10] [OD] | OD [11] [OD] | OD [12] [OD] | OD [13] [OD] | OD [14] [OD] | OD at 490 nm [15] [OD] | OD at 490 nm [16] [OD] | OD at 490 nm [17] [OD] | OD at 490 nm [18] [OD] | OD at 490 nm [19] [OD] | OD at 490 nm [20] [OD] | also measured |
| --- | --- | --- | --- | --- | --- | --- | --- | --- | --- | --- | --- | --- | --- | --- | --- | --- | --- | --- | --- | --- | --- |
| LAVSLGQRATISCRASQSVS [LAVSLGQRATISCRASQSVS (SEQ. ID. No. 16)] | 0.038 | 2.63 | 0.393 | 0.128 | 0.195 | 0.03 | 0.024 | 0.023 | 0.434 | 0.807 | 0.9 | 0.24 | 0.388 | 0.355 | 0.429 | 0.345 | 0.365 | 0.35 | 1.03 | 0.998 | OD at 490 nm [21]: 0.891 OD; OD at 490 nm [22]: 0.859 OD; OD at 490 nm [23]: 1.04 OD |
| CKASGYSFTGYNMNWVKQSH (also called Peptide # 26) [CKASGYSFTGYNMNWVKQSH (SEQ. ID. No. 29)] | 0.091 | 1.48 | 0.241 | 0.053 | 0.101 | 0.063 | 0.027 | 0.026 | 0.198 | 0.356 | 0.422 | 0.179 | 0.156 | 0.171 | 0.383 | 0.28 | 0.357 | 0.351 | 1.35 | 1.25 | OD at 490 nm [21]: 0.947 OD; OD at 490 nm [22]: 0.341 OD; OD at 490 nm [23]: 1.27 OD |
| ISCRASQSVSTSSYSYMHWY [ISCRASQSVSTSSYSYMHWY (SEQ. ID. No. 17)] | 0.132 | 2.66 | 0.687 | 0.156 | 0.252 | 0.102 | 0.046 | 0.056 | 0.569 | 0.449 | 0.641 | 0.514 | 0.63 | 0.413 | 0.439 | 0.37 | 0.38 | 0.37 | 1.39 | 1.56 | OD at 490 nm [21]: 1.46 OD; OD at 490 nm [22]: 1.47 OD; OD at 490 nm [23]: 1.44 OD |
| VKPGASVKLSCKASGYIFTS (also called Peptide # 2; Pept. #2) [VKPGASVKLSCKASGYIFTS (SEQ. ID. No. 5)] | 0.096 | 3.45 | 0.751 | 0.269 | 0.374 | 0.063 | 0.081 | 0.043 | 1.22 | 1.15 | 1.45 | 0.913 | 0.597 | 0.333 | 0.341 | 0.083 | 0.331 | 0.336 | 0.698 | 0.395 | OD at 490 nm [21]: 0.194 OD; OD at 490 nm [22]: 0.139 OD; OD at 490 nm [23]: 0.824 OD |
| VKPGASVKISCKASGYSFTG (also called Peptide # 25) [VKPGASVKISCKASGYSFTG (SEQ. ID. No. 28)] | 0.05 | 2.65 | 0.319 | 0.097 | 0.159 | 0.115 | 0.022 | 0.034 | 0.766 | 0.845 | 1.01 | 0.423 | 0.298 | 0.217 | 0.359 | 0.274 | 0.339 | 0.329 | 1.2 | 1.22 | OD at 490 nm [21]: 0.91 OD; OD at 490 nm [22]: 0.302 OD; OD at 490 nm [23]: 1.21 OD |
